Results reported in paper PMC11346345 (Cell reports, 2024).

What was measured:
Assay in all cases: SPR
[1] = target: recombinant GP38 of CCHFV 200406546-Turkey (Crimean-Congo hemorrhagic fever virus, …, UniProt A0A0U2SQZ0, strain)
[2] = target: recombinant GP38 of CCHFV Kosova-Hoti (Crimean-Congo hemorrhagic fever virus, …, UniProt B2BSL7, strain)
[3] = target: recombinant GP38 of CCHFV Oman-199809166 (Crimean-Congo hemorrhagic fever virus, …, UniProt A0A0U3C6Q7, strain)

Measured: Kd

B1: ADI-58048 IgG (antibody, V domains shown)
VH: QLQLQESGPGLVKPSETLSLTCTVSGGSITTSHYYWGWIRQPPGKGLEWVGSMYYSGGIYYNPSLKGRVTISVDTSKNQFSLKLSSVTAADTAVYYCALADAPDDAFDIWGQGTMVTVSS
VL: DIQMTQSPSSLSAFVGDRVTITCRASQSISSYLNWYQQKPGKAPKLLIYAASTLQSGVPSRFSGSGSGTDFTLTISSLQSEDFATYYCQESYSIPFTFGPGTKVDIK
< 0.398 nM: [1] | [2] | [3]
